Assay results published in patent US20190071480A1 (Biogen, published 2019).
Values belong to the binder of their own block, whether it stands above or below them. Bridges are numbered along the chain shown (N, C = ends).

Assays:
[1] = biological target: T1, extracellular domain of activin receptor type IIB (ActRIIBecd), biotinylated (Homo sapiens (Human), UniProt Q13705 27-117, amino-biotinylated with amine-PEG3-Biotin); assay: BIAcore SPR, biotinylated ActRIIBecd on chip; SD ±24.42 nM
T1 construct: immobilised on a streptavidin-coated sensor chip; also called biotinylated ActRIIBecd; extracellular domain of ActRIIB
T1 sequence: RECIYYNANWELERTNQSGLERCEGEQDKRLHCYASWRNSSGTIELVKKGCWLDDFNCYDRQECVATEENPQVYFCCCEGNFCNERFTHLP
Description: (§1) Biosensor experiments. In one embodiment, experiments were performed on a BIAcore™ T100/T200 instrument (Pharmacia Biosensor AB) in the multichannel mode (serial flow path involving flow cells 1+2+3+4). Flow rate was 10 μl/min; temperature was 25° C.; and data were recorded at 2.5 points/s. All four segments of a sensor chip CMS were coated with streptavidin (Sigma) to a density of 2000 pg/mm² (2000 resonance units) by the aminocoupling procedure. ActRIIBecd (10 mg) and amine-PEG3-Biotin (10 mg, Pierce, Rockford, Ill.) were dissolved in 200 μl H₂O and 10 mg NaCNBH₃ was added to prepare biotinylated ActRIIBecd. The reaction mixture was heated at 70° C. for 24 h, after that a further 10 mg NaCNBH₃ was added and the reaction was heated at 70° C. for another 24 h. After cooling to room temperature, the mixture was desalted with the spin column (3,000 molecular weight cut off (MWCO)). […] Sensograms were recorded during flow of the analyte (the ActRIIBecd-associated polypeptides (i.e., domains) as previously described) first through flow cell 1 (control) then through flow cell 2 (biotinylated ActRIIBecd). […] The sensograms obtained at 1.11, 3.33, 10, 30, and 90 nM analyte were evaluated for equilibrium binding, association rate, and dissociation rate by using the programs supplied with the instrument (BIA evaluation 2.1; Software Handbook. 1995; Pharmacia Biosensor AB).

[2] = biological target: T1, extracellular domain of activin …; assay: BIAcore SPR as Example 5 (method not restated); SD ±2.88 nM
Description: as §1

[3] = biological target: T1, extracellular domain of activin …; assay: Mean KD column of Table 5; method not restated (BIAcore as Example 5); species also listed in Table 4
Procedure, shortened: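 Biotinylated ActRIIBecd captured on streptavidin-coated sensor chip (50-250 RU); analytes in glycine buffer pH 4.5 flowed at 10 μl/min, 25° C., at 1.11, 3.33, 10, 30 and 90 nM. Reference-cell-subtracted sensorgrams fitted for equilibrium binding, association and dissociation rates.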

[4] = biological target: T1, extracellular domain of activin …; assay: Mean KD column of Table 5; differs from Table 4 (22.31)
Description: as §1

[5] = biological target: T1, extracellular domain of activin …; assay: BIAcore SPR as Example 5 (method not restated); SD ±1.99 nM
Description: as §1

[6] = biological target: T1, extracellular domain of activin …; assay: BIAcore SPR as Example 5 (method not restated); SD ±2.31 nM
Description: as §1

[7] = biological target: T1, extracellular domain of activin …; assay: BIAcore SPR as Example 5 (method not restated); SD ±3.22 nM
Description: as §1

[8] = biological target: T1, extracellular domain of activin …; assay: BIAcore SPR as Example 5 (method not restated); SD ±3.01 nM
Description: as §1

[9] = biological target: T1, extracellular domain of activin …; assay: BIAcore SPR as Example 5 (method not restated); SD ±2.14 nM
Description: as §1

[10] = biological target: T1, extracellular domain of activin …; assay: BIAcore SPR as Example 5 (method not restated); SD ±2.39 nM
Description: as §1

[11] = biological target: T1, extracellular domain of activin …; assay: BIAcore SPR as Example 5 (method not restated); SD ±1.65 nM
Description: as §1

[12] = biological target: T1, extracellular domain of activin …; assay: BIAcore SPR as Example 5 (method not restated); SD ±2.05 nM
Description: as §1

[13] = biological target: T1, extracellular domain of activin …; assay: BIAcore SPR as Example 5 (method not restated); SD ±3.30 nM
Description: as §1

[14] = biological target: T1, extracellular domain of activin …; assay: BIAcore SPR as Example 5 (method not restated); SD ±1.27 nM
Description: as §1

[15] = biological target: T1, extracellular domain of activin …; assay: BIAcore SPR, biotinylated ActRIIBecd on chip; SD ±12.79 nM
Description: as §1

[16] = biological target: T1, extracellular domain of activin …; assay: BIAcore SPR as Example 5 (method not restated); SD ±1.12 nM
Description: as §1

[17] = biological target: T1, extracellular domain of activin …; assay: BIAcore SPR as Example 5 (method not restated); SD ±0.96 nM
Description: as §1

[18] = biological target: T1, extracellular domain of activin …; assay: BIAcore SPR as Example 5 (method not restated); SD ±1.03 nM
Description: as §1

[19] = biological target: T1, extracellular domain of activin …; assay: BIAcore SPR as Example 5 (method not restated); SD ±2.09 nM
Description: as §1

Binder: AQAKHKQYKRLKSSCKRHPLY [Clone No. 12 domain (ActRIIBecd-associated polypeptide)]
- Kd [1]: 58.4 nM

B1: SEQ ID NO: 224, cysteine pairs C15-C44^a (designed binder)
chain: GQAKRKGYKRLKSSCKRHPLYVDFKDVGWNDHAVAPPGYHAFYCHGECPFPLADHLNSDNHAIVQTKVNSV
modifications: disulfides C15-C44 (intra)
- Kd [2]: 48.9 nM
- Kd [3]: 48.9 nM

B2: SEQ ID NO: 224, cysteine pairs C44-C48^a (designed binder)
chain: GQAKRKGYKRLKSSCKRHPLYVDFKDVGWNDHAVAPPGYHAFYCHGECPFPLADHLNSDNHAIVQTKVNSV
modifications: disulfides C44-C48 (intra)
- Kd [4]: 21.5 nM
- Kd [5]: 22.3 nM

B4: SEQ ID NO: 248, cysteine pairs C41-C43^a (designed binder)
chain: NSKDPKACCVPTELSAPSPLYLDENEKPVLKNYQDMVVHGCGCRVDFKDVGWNDHAVAPPGYHAFYCHGECPFPLADHLNSDNHAIVQTKVNSV
modifications: disulfides C41-C43 (intra)
- Kd [7]: 47.8 nM
- Kd [3]: 47.8 nM

B5: SEQ ID NO: 248, cysteine pairs C67-C71^a, C8-C43^b, C9-C41^b (designed binder)
chain: NSKDPKACCVPTELSAPSPLYLDENEKPVLKNYQDMVVHGCGCRVDFKDVGWNDHAVAPPGYHAFYCHGECPFPLADHLNSDNHAIVQTKVNSV
modifications: disulfides C67-C71 (intra), C8-C43 (inter), C9-C41 (inter)
notes: homodimer by intermolecular disulfide
- Kd [8]: 19.2 nM
- Kd [3]: 19.2 nM

B6: SEQ ID NO: 248, cysteine pairs C67-C71^a, C8-C43^a, C9-C41^a (designed binder)
chain: NSKDPKACCVPTELSAPSPLYLDENEKPVLKNYQDMVVHGCGCRVDFKDVGWNDHAVAPPGYHAFYCHGECPFPLADHLNSDNHAIVQTKVNSV
modifications: disulfides C67-C71 (intra), C8-C43 (intra), C9-C41 (intra)
- Kd [9]: 20 nM
- Kd [3]: 20 nM

B7: SEQ ID NO: 254, cysteine pairs C23-C27^a, C58-C93^a, C59-C91^a (designed binder)
chain: VDFKDVGWNDHAVAPPGYHAFYCHGECPFPLADHLNSDNHAIVQTKVNSVNSKDPKACCVPTELSAPSPLYLDENEKPVLKNYQDMVVHGCGCR
modifications: disulfides C23-C27 (intra), C58-C93 (intra), C59-C91 (intra)
- Kd [10]: 19.1 nM
- Kd [3]: 19.1 nM

B9: SEQ ID NO: 254, cysteine pairs C23-C58^a (designed binder)
chain: VDFKDVGWNDHAVAPPGYHAFYCHGECPFPLADHLNSDNHAIVQTKVNSVNSKDPKACCVPTELSAPSPLYLDENEKPVLKNYQDMVVHGCGCR
modifications: disulfides C23-C58 (intra)
- Kd [12]: 44.4 nM
- Kd [3]: 44.4 nM

B10: SEQ ID NO: 236, cysteine pairs C41-C59^a (designed binder)
chain: NSKDPKACCVPTELSAPSPLYLDENEKPVLKNYQDMVVHGCGCRGQAKRKGYKRLKSSCKRHPLY
modifications: disulfide 41-59
- Kd [13]: 49.5 nM
- Kd [3]: 49.5 nM

Binder: VDFKDVGWNDHAVAPPGYHAFYCHGECPFPLADHLNSDNHAIVQTKVNSV [Clone No. 14 domain (ActRIIBecd-associated polypeptide)]
- Kd [15]: 38.3 nM

Continued, values first:

- Kd [6]: 17.9 nM
- Kd [3]: 17.9 nM
B3: SEQ ID NO: 230, cysteine pairs C23-C27^a (designed binder)
chain: VDFKDVGWNDHAVAPPGYHAFYCHGECPFPLADHLNSDNHAIVQTKVNSVGQAKRKGYKRLKSSCKRHPLY
modifications: disulfides C23-C27 (intra)

- Kd [11]: 18.7 nM
- Kd [3]: 18.7 nM
B8: SEQ ID NO: 254, cysteine pairs C23-C27^a, C58-C91^b, C59-C93^b (designed binder)
chain: VDFKDVGWNDHAVAPPGYHAFYCHGECPFPLADHLNSDNHAIVQTKVNSVNSKDPKACCVPTELSAPSPLYLDENEKPVLKNYQDMVVHGCGCR
modifications: disulfides C23-C27 (intra), C58-C91 (inter), C59-C93 (inter)
notes: as for B5

- Kd [14]: 17.1 nM
- Kd [3]: 17.1 nM
B11: SEQ ID NO: 236, cysteine pairs C59-C59^b, C8-C43^a, C9-C41^a (designed binder)
chain: NSKDPKACCVPTELSAPSPLYLDENEKPVLKNYQDMVVHGCGCRGQAKRKGYKRLKSSCKRHPLY
modifications: disulfide 9-41, 8-43; also: homodimer via intermolecular C59-C59 disulfide
notes: as for B5

- Kd [16]: 6.56 nM
- Kd [3]: 6.56 nM
B12: SEQ ID NO: 260, cysteine pairs C15-C80^a, C44-C112^a, C48-C114^a, C79-C79^b (designed binder)
chain: AQAKHKQRKRLKSSCKRHPLYVDFSDVGWNDWIVAPPGYHAFYCHGECPFPLADHLNSTNHAIVQTLVNSVNSKIPKACCVPTELSAISMLYLDENEKVVLKNYQDMVVEGCGCR
modifications: disulfides C15-C80 (intra), C44-C112 (intra), C48-C114 (intra), C79-C79 (inter)
notes: as for B5

- Kd [3]: 6.89 nM
- Kd [17]: 6.89 nM
B13: SEQ ID NO: 260, cysteine pairs C80-C114^b, C79-C112^b, C44-C48^a (designed binder)
chain: AQAKHKQRKRLKSSCKRHPLYVDFSDVGWNDWIVAPPGYHAFYCHGECPFPLADHLNSTNHAIVQTLVNSVNSKIPKACCVPTELSAISMLYLDENEKVVLKNYQDMVVEGCGCR
modifications: disulfides C80-C114 (inter), C79-C112 (inter), C44-C48 (intra)
notes: as for B5

- Kd [18]: 7.64 nM
- Kd [3]: 7.64 nM
B14: SEQ ID NO: 260, cysteine pairs C15-C15^b, C79-C114^a, C80-C112^a, C44-C48^a (designed binder)
chain: AQAKHKQRKRLKSSCKRHPLYVDFSDVGWNDWIVAPPGYHAFYCHGECPFPLADHLNSTNHAIVQTLVNSVNSKIPKACCVPTELSAISMLYLDENEKVVLKNYQDMVVEGCGCR
modifications: disulfides C15-C15 (inter), C79-C114 (intra), C80-C112 (intra), C44-C48 (intra)
notes: as for B5

- Kd [19]: 17.8 nM
- Kd [3]: 17.8 nM
B15: SEQ ID NO: 242, cysteine pairs C15-C15^b, C29-C62^a, C30-C64^a (designed binder)
chain: GQAKRKGYKRLKSSCKRHPLYNSKDPKACCVPTELSAPSPLYLDENEKPVLKNYQDMVVHGCGCR
modifications: disulfide 29-62, 30-64; also: homodimer via intermolecular C15-C15 disulfide
notes: as for B5
